Assay results taken from patent publication US20110076730A1 (priority 2006, published 2011).
Like-named read-outs stand apart in the source and are kept apart here.

Experiments:
[1] = type: biochemical; conditions: read-out: L-arabinose Km
[2] = type: biochemical; conditions: pH 8.3
[3] = type: biochemical; conditions: read-out: Cofactor Km
[4] = type: biochemical; conditions: read-out: D-xylose Km

Molecule	Km [1] [µM]	D-fructose, D-galactose, D-mannose, 2-deoxy-D-glucose, D-glucose-6-phosphate and D-ribose as substrates [2]	Oxidation of D-xylose, L-arabinose and D-glucose into corresponding sugar acid [2]	Km [3] [µM]	Km [4] [µM]
Xdh-B. fungorum: D-xylose dehydrogenase (Xdh) from Burkholderia fungorum LB400, protein RBU11704 in the ERGO database (protein, Burkholderia fungorum LB400, D-xylose dehydrogenase (Xdh) from Burkholderia fungorum LB400, protein RBU11704 in the ERGO database) MYLLSYPEQVDYPMSYAIYPSLSGKTVVITGGGSGIGAAMVEAFARQGARVFFLDVAEDDSLALQQSLSDAPHPPLFRRCDLRSVDAIHSAFAGIVEIAGPIEVLVNNAGNDDRHEVDAITPAYWDERMAVNLRHQFFCAQAAAAGMRKIGRGVILNLGSVSWHLALPNLAIYMSAKAGIEGLTRGLARDLGAAGIRVNCIIPGAVRTPRQMQLWQSPESEAKLVASQCLRLRIEPEHVARMALFLASDDASRCSGRDYFVDAGWYGE	43000	not the substrates	could be oxidized	260	970
Xdh-C. crescentus: D-xylose dehydrogenase (Xdh) from Caulobacter crescentus CB15, protein RC001012 in the ERGO database (protein, Caulobacter crescentus CB15, D-xylose dehydrogenase (Xdh) from Caulobacter crescentus CB15, protein RC001012 in the ERGO database) MSSAIYPSLKGKRVVITGGGSGIGAGLTAGFARQGAEVIFLDIADEDSRALEAELAGSPIPPVYKRCDLMNLEAIKAVFAEIGDVDVLVNNAGNDDRHKLADVTGAYWDERINVNLRHMLFCTQAVAPGMKKRGGGAVINFGSISWHLGLEDLVLYETAKAGIEGMTRALARELGPDDIRVTCVVPGNVKTKRQEKWYTPEGEAQIVAAQCLKGRIVPENVAALVLFLASDDASLCTGHEYWIDAGWR	34000	not the substrates	could be oxidized	130	99
